B1: FBS-AChE (protein, UniProt P23795 31-613, looked up)
Acetylcholinesterase: EGPEDPELLVMVRGGRLRGLRLMAPRGPVSAFLGIPFAEPPVGPRRFLPPEPKRPWPGVLNATAFQSVCYQYVDTLYPGFEGTEMWNPNRELSEDCLYLNVWTPYPRPSSPTPVLVWIYGGGFYSGASSLDVYDGRFLTQAEGTVLVSMNYRVGAFGFLALPGSREAPGNVGLLDQRLALQWVQENVAAFGGDPTSVTLFGESAGAASVGMHLLSPPSRGLFHRAVLQSGAPNGPWATVGVGEARRRATLLARLVGCPPGGAGGNDTELVACLRARPAQDLVDHEWRVLPQESVFRFSFVPVVDGDFLSDTPEALINAGDFHGLQVLVGVVKDEGSYFLVYGAPGFSKDNESLISRAQFLAGVRVGVPQASDLAAEAVVLHYTDWLHPEDPARLREALSDVVGDHNVVCPVAQLAGRLAAQGARVYAYIFEHRASTLSWPLWMGVPHGYEIEFIFGLPLEPSLNYTIEERTFAQRLMRYWANFARTGDPNDPRDPKAPQWPPYTAGAQQYVSLNLRPLEVRRGLRAQACAFWNRFLPKLLSATDTLDEAERQWKAEFHRWSSYMVHWKNQFDHYSKQDRCSDL
B2: PEG modified FBS-AChE (conjugate, UniProt P23795 31-613, looked up)
Acetylcholinesterase: EGPEDPELLVMVRGGRLRGLRLMAPRGPVSAFLGIPFAEPPVGPRRFLPPEPKRPWPGVLNATAFQSVCYQYVDTLYPGFEGTEMWNPNRELSEDCLYLNVWTPYPRPSSPTPVLVWIYGGGFYSGASSLDVYDGRFLTQAEGTVLVSMNYRVGAFGFLALPGSREAPGNVGLLDQRLALQWVQENVAAFGGDPTSVTLFGESAGAASVGMHLLSPPSRGLFHRAVLQSGAPNGPWATVGVGEARRRATLLARLVGCPPGGAGGNDTELVACLRARPAQDLVDHEWRVLPQESVFRFSFVPVVDGDFLSDTPEALINAGDFHGLQVLVGVVKDEGSYFLVYGAPGFSKDNESLISRAQFLAGVRVGVPQASDLAAEAVVLHYTDWLHPEDPARLREALSDVVGDHNVVCPVAQLAGRLAAQGARVYAYIFEHRASTLSWPLWMGVPHGYEIEFIFGLPLEPSLNYTIEERTFAQRLMRYWANFARTGDPNDPRDPKAPQWPPYTAGAQQYVSLNLRPLEVRRGLRAQACAFWNRFLPKLLSATDTLDEAERQWKAEFHRWSSYMVHWKNQFDHYSKQDRCSDL
modifications: PEG
B3: PEG-modified sialidase-treated AChE (conjugate, UniProt P22303 32-614, looked up)
Acetylcholinesterase: EGREDAELLVTVRGGRLRGIRLKTPGGPVSAFLGIPFAEPPMGPRRFLPPEPKQPWSGVVDATTFQSVCYQYVDTLYPGFEGTEMWNPNRELSEDCLYLNVWTPYPRPTSPTPVLVWIYGGGFYSGASSLDVYDGRFLVQAERTVLVSMNYRVGAFGFLALPGSREAPGNVGLLDQRLALQWVQENVAAFGGDPTSVTLFGESAGAASVGMHLLSPPSRGLFHRAVLQSGAPNGPWATVGMGEARRRATQLAHLVGCPPGGTGGNDTELVACLRTRPAQVLVNHEWHVLPQESVFRFSFVPVVDGDFLSDTPEALINAGDFHGLQVLVGVVKDEGSYFLVYGAPGFSKDNESLISRAEFLAGVRVGVPQVSDLAAEAVVLHYTDWLHPEDPARLREALSDVVGDHNVVCPVAQLAGRLAAQGARVYAYVFEHRASTLSWPLWMGVPHGYEIEFIFGIPLDPSRNYTAEEKIFAQRLMRYWANFARTGDPNEPRDPKAPQWPPYTAGAQQYVSLDLRPLEVRRGLRAQACAFWNRFLPKLLSATDTLDEAERQWKAEFHRWSSYMVHWKNQFDHYSKQDRCSDL
modifications: PEG; sialidase-treated
B4: PEG-modified non-glycosylated AChE (conjugate, UniProt P22303 32-614, looked up)
Acetylcholinesterase: EGREDAELLVTVRGGRLRGIRLKTPGGPVSAFLGIPFAEPPMGPRRFLPPEPKQPWSGVVDATTFQSVCYQYVDTLYPGFEGTEMWNPNRELSEDCLYLNVWTPYPRPTSPTPVLVWIYGGGFYSGASSLDVYDGRFLVQAERTVLVSMNYRVGAFGFLALPGSREAPGNVGLLDQRLALQWVQENVAAFGGDPTSVTLFGESAGAASVGMHLLSPPSRGLFHRAVLQSGAPNGPWATVGMGEARRRATQLAHLVGCPPGGTGGNDTELVACLRTRPAQVLVNHEWHVLPQESVFRFSFVPVVDGDFLSDTPEALINAGDFHGLQVLVGVVKDEGSYFLVYGAPGFSKDNESLISRAEFLAGVRVGVPQVSDLAAEAVVLHYTDWLHPEDPARLREALSDVVGDHNVVCPVAQLAGRLAAQGARVYAYVFEHRASTLSWPLWMGVPHGYEIEFIFGIPLDPSRNYTAEEKIFAQRLMRYWANFARTGDPNEPRDPKAPQWPPYTAGAQQYVSLDLRPLEVRRGLRAQACAFWNRFLPKLLSATDTLDEAERQWKAEFHRWSSYMVHWKNQFDHYSKQDRCSDL
modifications: PEG; non-glycosylated
B5: PEG-modified mono-glycosylated AChE (conjugate, UniProt P22303 32-614, looked up)
Acetylcholinesterase: EGREDAELLVTVRGGRLRGIRLKTPGGPVSAFLGIPFAEPPMGPRRFLPPEPKQPWSGVVDATTFQSVCYQYVDTLYPGFEGTEMWNPNRELSEDCLYLNVWTPYPRPTSPTPVLVWIYGGGFYSGASSLDVYDGRFLVQAERTVLVSMNYRVGAFGFLALPGSREAPGNVGLLDQRLALQWVQENVAAFGGDPTSVTLFGESAGAASVGMHLLSPPSRGLFHRAVLQSGAPNGPWATVGMGEARRRATQLAHLVGCPPGGTGGNDTELVACLRTRPAQVLVNHEWHVLPQESVFRFSFVPVVDGDFLSDTPEALINAGDFHGLQVLVGVVKDEGSYFLVYGAPGFSKDNESLISRAEFLAGVRVGVPQVSDLAAEAVVLHYTDWLHPEDPARLREALSDVVGDHNVVCPVAQLAGRLAAQGARVYAYVFEHRASTLSWPLWMGVPHGYEIEFIFGIPLDPSRNYTAEEKIFAQRLMRYWANFARTGDPNEPRDPKAPQWPPYTAGAQQYVSLDLRPLEVRRGLRAQACAFWNRFLPKLLSATDTLDEAERQWKAEFHRWSSYMVHWKNQFDHYSKQDRCSDL
modifications: PEG; mono-glycosylated
B6: PEG-modified fully sialylated AChE (conjugate, UniProt P22303 32-614, looked up)
Acetylcholinesterase: EGREDAELLVTVRGGRLRGIRLKTPGGPVSAFLGIPFAEPPMGPRRFLPPEPKQPWSGVVDATTFQSVCYQYVDTLYPGFEGTEMWNPNRELSEDCLYLNVWTPYPRPTSPTPVLVWIYGGGFYSGASSLDVYDGRFLVQAERTVLVSMNYRVGAFGFLALPGSREAPGNVGLLDQRLALQWVQENVAAFGGDPTSVTLFGESAGAASVGMHLLSPPSRGLFHRAVLQSGAPNGPWATVGMGEARRRATQLAHLVGCPPGGTGGNDTELVACLRTRPAQVLVNHEWHVLPQESVFRFSFVPVVDGDFLSDTPEALINAGDFHGLQVLVGVVKDEGSYFLVYGAPGFSKDNESLISRAEFLAGVRVGVPQVSDLAAEAVVLHYTDWLHPEDPARLREALSDVVGDHNVVCPVAQLAGRLAAQGARVYAYVFEHRASTLSWPLWMGVPHGYEIEFIFGIPLDPSRNYTAEEKIFAQRLMRYWANFARTGDPNEPRDPKAPQWPPYTAGAQQYVSLDLRPLEVRRGLRAQACAFWNRFLPKLLSATDTLDEAERQWKAEFHRWSSYMVHWKNQFDHYSKQDRCSDL
modifications: PEG; fully sialylated
B7: partially desialylated BChE (protein, UniProt P06276 29-602, looked up)
Cholinesterase: EDDIIIATKNGKVRGMNLTVFGGTVTAFLGIPYAQPPLGRLRFKKPQSLTKWSDIWNATKYANSCCQNIDQSFPGFHGSEMWNPNTDLSEDCLYLNVWIPAPKPKNATVLIWIYGGGFQTGTSSLHVYDGKFLARVERVIVVSMNYRVGALGFLALPGNPEAPGNMGLFDQQLALQWVQKNIAAFGGNPKSVTLFGESAGAASVSLHLLSPGSHSLFTRAILQSGSFNAPWAVTSLYEARNRTLNLAKLTGCSRENETEIIKCLRNKDPQEILLNEAFVVPYGTPLSVNFGPTVDGDFLTDMPDILLELGQFKKTQILVGVNKDEGTAFLVYGAPGFSKDNNSIITRKEFQEGLKIFFPGVSEFGKESILFHYTDWVDDQRPENYREALGDVVGDYNFICPALEFTKKFSEWGNNAFFYYFEHRSSKLPWPEWMGVMHGYEIEFVFGLPLERRDNYTKAEEILSRSIVKRWANFAKYGNPNETQNNSTSWPVFKSTEQKYLTLNTESTRIMTKLRAQQCRFWTSFFPKVLEMTGNIDEAEWEWKAGFHRWNNYMMDWKNQFNDYTSKKESCVGL
modifications: partially desialylated
B8: non-treated serum-derived BChE (protein, UniProt P06276 29-602, looked up)
Cholinesterase: EDDIIIATKNGKVRGMNLTVFGGTVTAFLGIPYAQPPLGRLRFKKPQSLTKWSDIWNATKYANSCCQNIDQSFPGFHGSEMWNPNTDLSEDCLYLNVWIPAPKPKNATVLIWIYGGGFQTGTSSLHVYDGKFLARVERVIVVSMNYRVGALGFLALPGNPEAPGNMGLFDQQLALQWVQKNIAAFGGNPKSVTLFGESAGAASVSLHLLSPGSHSLFTRAILQSGSFNAPWAVTSLYEARNRTLNLAKLTGCSRENETEIIKCLRNKDPQEILLNEAFVVPYGTPLSVNFGPTVDGDFLTDMPDILLELGQFKKTQILVGVNKDEGTAFLVYGAPGFSKDNNSIITRKEFQEGLKIFFPGVSEFGKESILFHYTDWVDDQRPENYREALGDVVGDYNFICPALEFTKKFSEWGNNAFFYYFEHRSSKLPWPEWMGVMHGYEIEFVFGLPLERRDNYTKAEEILSRSIVKRWANFAKYGNPNETQNNSTSWPVFKSTEQKYLTLNTESTRIMTKLRAQQCRFWTSFFPKVLEMTGNIDEAEWEWKAGFHRWNNYMMDWKNQFNDYTSKKESCVGL

Test: Clearance experiments in mice, pharmacokinetic profiles
Details: mice; for MRT: mean residence time, noncompartmental model
Description: The pharmacokinetic profiles of non-modified and various preparations of PEG-modified AChE were resolved. Clearance experiments in mice (3 to 6 ICR male mice per enzyme sample) and analysis of pharmacokinetic profiles were carried out as described essentially previously [Kronman, C., et al. (1992), Gene 121, 295-304]. The study was approved by the local ethical committee on animal experiments. Mice were injected with the various rHuAChE preparations (40 μg/mouse in 0.2 ml PBS). Residual AChE activity in blood samples was measured and all values were corrected for background hydrolytic activity in the blood (using samples withdrawn 1 hour before performing the experiment). AChE activity values in samples removed immediately after injection were assigned a value of 100% and used for calculation of residual activity. […] This model enables determination of the parameters A and B which represent the fractions of the material removed from the circulation in the first-fast and second-slow elimination phases respectively, and T1/2α and T1/2β which represent the circulatory half-life values of the enzyme in the fast and slow phases. The pharmacokinetic parameters MRT (mean residence time, which reflects the average length of time the administered molecules are retained in the organism) and CL (clearance, which represents the proportionality factor relating the rate of substance elimination to its plasma concentration (CL=dose/area under the concentration-time curve), were independently obtained by analyzing the clearance data according to a noncompartmental pharmacokinetic model using the WinNonlin computer program. The comparative results are set forth in Table 3 below.

Row | Molecule | pharmacokinetic behavior after modification by PEG versus non-modified enzyme | further results
1 | B1 | – | MRT: 22.33 h
2 | B2 | significantly improved | –
3 | B3 | significantly improved | –
4 | B4 | significantly improved | –
5 | B5 | significantly improved | –
6 | B6 | significantly improved | –
7 | B7 | – | MRT: 2.67 h
8 | B8 | – | circulatory residence time (in words): resides in the circulation for extended periods of time

Source: patent US7572764B2, “Uses of chemically-modified cholinesterases for detoxification of organophosporus compounds” (priority 2001, dated 2009)
